The supplement of paper PMC10567573

B1: FBXO3 (parent)
chain: FIDTYSDVGRYIDHYAAIKKAWDD
B2: FEM1A (parent)
chain: PCCSSSPEEPLNGESYESCCPTSR

Variants of: B1
Test: protein stability index of a GFP-peptide fusion (GPS, HEK-293T) (PSI 1-6); higher = more stable
Conditions: c terminus: a fixed tail appended
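Also: lentivirally expressed fusions sorted by FACS into six bins by GFP to DsRed ratio, PSI derived from sequencing read proportions per bin multiplied by bin number.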

Protein stability index, by site and new letter:
A16: H 2.12 | I 1.71 | K 2.04 | L 2.01 | M 1.25 | N 1.12 | P 2.07 | Q 1.81 | R 1.69 | S 1.93 | T 1.42 | V 2.6 | W 1.84 | Y 2.71
A17: C 1.92 | D 2.23 | E 1.72 | F 3.36 | G 1.84 | H 2.59 | I 1.6 | K 1.92 | L 1.83 | M 1.24 | N 1.63 | P 2.17 | Q 1.62 | R 1.98 | S 2.38 | T 1.68 | V 2.18 | W 2 | Y 2.6
I18: A 2.03 | C 1.94 | D 1.7 | E 1.97 | F 2.12 | G 2.38 | H 2.39 | K 2.41 | L 2.11 | M 2.16 | N 1.46 | P 1.96 | Q 1.54 | R 1.7 | S 2.13 | T 2.24 | V 2.16 | W 1.74 | Y 1.31
K19: A 1.37 | C 1.55 | D 2.46 | E 1.34 | F 1.84 | G 1.91 | H 2.68 | I 2.39 | L 1.92 | M 3.18 | N 1.88 | P 1.74 | Q 2.07 | R 1.16 | S 1.02 | T 2.38 | V 1.98 | W 2.34 | Y 1.64
K20: A 2.16 | C 2.19 | D 1.74 | E 2.29 | F 2.08 | G 1.81 | H 1.7 | I 2.59 | L 1.54 | M 2.49 | N 2.76 | P 2.15 | Q 1.68 | R 1.67 | S 1.54 | T 1.61 | V 1.44 | W 2.86 | Y 2.08
A21: C 1.82 | D 3.43 | E 1.88 | F 1.96 | G 3.18 | H 1.61 | I 2.48 | K 1.88 | L 1.72 | M 3.02 | N 2 | P 1.97 | Q 1.82 | R 1.96 | S 2.12 | T 2.23 | V 1.22 | W 1.7 | Y 1.85
W22: A 2.05 | C 1.95 | D 2.05 | E 2.1 | F 1.39 | G 1.85 | H 2.02 | I 2.1 | K 3 | L 2.29 | M 1.64 | N 1.68 | P 1.69 | Q 1.26 | R 1.86 | S 1.75 | T 1.95 | V 1.61 | Y 2.3
D23: A 1.74 | C 2.82 | E 2.31 | F 1.87 | G 1.35 | H 1.81 | I 3.3 | K 1.7 | L 1.61 | M 2.56 | N 2.29 | P 2.1 | Q 1.44 | R 1.72 | S 1.64 | T 1.97 | V 1.48 | W 3.21 | Y 2.04
D24: A 2.83 | C 1.32 | E 2.4 | F 1.67 | G 1.61 | H 2.7 | I 2.86 | K 1.58 | L 1.79 | M 1.82 | N 1.54 | P 2.28 | Q 2.39 | R 1.99 | S 1.44 | T 2.51 | V 2.6 | W 2.07 | Y 2.19

Variants of: B2
Test: as above
Conditions: c terminus: a fixed tail appended

Protein stability index: each site, then its substitutions
P1: A 4.21
